In PMC4577212, “X-Ray Structure and Mutagenesis Studies of the N-Isopropylammelide Isopropylaminohydrolase, AtzC” (PLoS ONE, 2015):

B1: N-isopropylammelide isopropylaminohydrolase AtzC from Pseudomonas sp. strain ADP, His-tagged (enzyme, UniProt O52063 1-403, looked up)
chain: MSKDFDLIIRNAYLSEKDSVYDIGIVGDRIIKIEAKIEGTVKDEIDAKGNLVSPGFVDAHTHMDKSFTSTGERLPKFWSRPYTRDAAIEDGLKYYKNATHEEIKRHVIEHAHMQVLHGTLYTRTHVDVDSVAKTKAVEAVLEAKEELKDLIDIQVVAFAQSGFFVDLESESLIRKSLDMGCDLVGGVDPATRENNVEGSLDLCFKLAKEYDVDIDYHIHDIGTVGVYSINRLAQKTIENGYKGRVTTSHAWCFADAPSEWLDEAIPLYKDSGMKFVTCFSSTPPTMPVIKLLEAGINLGCASDNIRDFWVPFGNGDMVQGALIETQRLELKTNRDLGLIWKMITSEGARVLGIEKNYGIEVGKKADLVVLNSLSPQWAIIDQAKRLCVIKNGRIIVKDEVIVA
notes: AtzC, N-isopropylammelide isopropylaminohydrolase (E.C. 3.5.99.4), Pseudomonas sp. strain ADP; The tag carries a thrombin site; also called wild-type AtzC; tagged AtzC protein; source: E. coli BL21 (λDE3), purified (Ni-NTA, Superdex 200 SEC); not shown: His-tag, N-terminal, kept
B2: N-isopropylammelide isopropylaminohydrolase AtzC from Pseudomonas sp. strain ADP, thrombin-treated (His-tag removed) (enzyme, UniProt O52063 1-403, looked up)
chain: B1 chain
notes: AtzC, N-isopropylammelide isopropylaminohydrolase (E.C. 3.5.99.4), Pseudomonas sp. strain ADP; unmodified atzC gene (GenBank U66917.2) in pETCC2; tag removed by thrombin in the crystallisation sample without further purification; One Zn2+ ion per monomer; malonate in the active site of the crystal; also called WT; native protein; source: E. coli BL21 (λDE3), purified (Ni-NTA, Superdex 200 SEC), …

Key:
[1] = molecular target: the molecule itself; assay: SEC; Superdex 200 prep-grade, 130 mL column, 50 mM TRIS pH 7.5, 100 mM NaCl; native molecular mass of ~210 kDa
[2] = molecular target: the molecule itself; assay: crystal structure; thrombin-treated protein, 2.4 M sodium malonate pH 7; space group C2, half of the tetramer in the asymmetric unit; 1.84 Å; oligomer assessed with PISA

Protein	stoichiometry N [1]	stoichiometry N [2]
B1	4	
B2		4
